Measured values as given in patent US20220396614A1 (DEUTSCHES KREBSFORSCHUNGSZENTRUM, published 2022).

Molecular target: Plasmodium falciparum circumsporozoite protein (PfCSP) on Pf NF54 salivary gland sporozoites (Plasmodium falciparum (NF54))
Assay: cell-based or functional assay

B1: monoclonal antibody 2541 (antibody, V domains shown)
VH: QVQLVESGGGVVQPGRSLRLSCAASGFTFSSYGMHWVRQTTGKGLEWVAIIWHDGSKKYYADSVKGRLTISRDNSKNTLYLQMNSLRVEDTALYYCARVGDYSDFKYGAFDIWGQGTMVTVSS
VL: DIQMTQSPSTLSASVGDRVTITCRASQSISSWLAWYQQKPGKAPNLLIYKASTLESGVPSRFSGSGSGTEFTLTISSLQPDDFATYYCQQYNSYWTFGQGTRVEIK
- IC50, in vitro Pf-traversal inhibition assay: < 1 mg/L
